Data as given in patent US8394771.

Molecular target: ICAM-1 on HeLa cells (human) (UniProt P05362)
Assay: cell-based or functional assay

In the case of “bivalent anti-ICAM-1 monoclonal antibody RR/1 (Chemicon)”, the EC50, protection of HeLa cells from HRV15 infection is reported as > 10 nM.
